Data from the supplement of paper PMC10126150.
± gives the standard deviation of the averaged measurements.

Tested on: ATP
Experiment: switch fluorescence ratio, 500 uM ATP over buffer (Cy3 cluster intensity, sum of 5 cycles each) (fold (ratio)); higher = stronger signal-on switching upon ATP binding; sequences stand for … in TCGTCGGCAGCGTCAGATGTGTATAAGAGACAGTTTTTTTTTTTTTTTTTTTTTTTTT…TC
Conditions: aptamer strand: ATP DNA aptamer (quencher-CACCTGGGGGAGTATTGCGGAGGAAGG + anchor), 100 nM annealed; ATP concentration: 500 uM
Summary of the method: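 Exposure to 500 uM ATP lasted 15 min at 22 °C before imaging, and a selection-buffer image was taken beforehand, for Cy3-labelled switching-strand clusters on a modified Illumina MiSeq flow-cell annealed to 100 nM quencher-labelled ATP aptamer. Five buffer/ATP cycles were run with NaOH stripping and re-annealing between them. The fluorescence ratio per cluster is summed target-cycle over summed buffer-cycle Cy3 intensity, averaged per switch-domain sequence. Clusters outside 100-1000 RFU were excluded.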

| Sequence | switch fluorescence ratio |
| --- | --- |
| GGGGGATCGC | 1.01 ± 0.025 |
| TCCAGGGGTC | 1.38 ± 0.13 |
| CGGGTGGGTC | 1.29 ± 0.51 |
| GGGTCGGGGA | 0.97587 ± 0.00076 |
| TACTGGGGCT | 1.04 ± 0.034 |
| AAGGGAGGTT | 1 ± 0.027 |
| TAGGGGCAGT | 1.09 ± 0.14 |
| AACTACTTTG | 1 ± 0.03 |
| CCATTAGGAG | 0.988 ± 0.012 |
| CTATTCCACC | 1.02 ± 0.023 |
| GTTAATCTTA | 0.9873 ± 0.0036 |
| CTTTTTGGTA | 0.9975 ± 0.0084 |
| TTTTAGTTTC | 1.015 ± 0.0022 |
| TAATACGTTA | 1.197 ± 0.0026 |
| TTTTAAACTG | 1.1 ± 0.066 |
| TAGCTGGGGG | 0.995 ± 0.021 |
| TGGGGGTCAC | 0.9632 ± 0.0067 |
| GAGTGCCTGG | 1.02 ± 0.012 |
| CATTTATATG | 1.02 ± 0.026 |
| GGCTCTGAGG | 0.972 ± 0.02 |
| TGAATTTGTT | 0.995 ± 0.038 |
| GACACGTGGG | 1.02 ± 0.055 |
| CATGTGTAAT | 1.009 ± 0.0086 |

| Sequence | switch fluorescence ratio |
| --- | --- |
| TTTAGTGTTG | 0.957 ± 0.041 |
| TCAGGCTGGG | 1.02 ± 0.016 |
| GCTGGGAGTT | 1 ± 0.054 |
| TTTGAAGCTA | 2.19 ± 1.9 |
| TCATGAATTT | 0.9885 ± 0.0089 |
| GAGGGTCCGG | 0.991 ± 0.035 |
| TTGCTACACG | 1.04 ± 0.02 |
| TAAGGTTTAT | 0.9979 ± 0.0072 |
| TCAGATTAGT | 0.968 ± 0.016 |
| GGGTTAGAAA | 1 ± 0.043 |
| GATCGTATGT | 0.9838 ± 0.0013 |
| CTTGTCGAGG | 0.986 ± 0.042 |
| GGGGTTGCCG | 0.992 ± 0.034 |
| AAGTCCTGGA | 1.07 ± 0.13 |
| TTTGACTAAG | 1.06 ± 0.099 |
| CAGGGGAGCA | 1.02 ± 0.039 |
| CGAACGGATG | 1.0156 ± 0.00041 |
| GATAGTGGTT | 1.022 ± 0.0078 |
| CAGGACTATT | 0.995 ± 0.021 |
| GCCGAATTTG | 1.028 ± 0.0068 |
| TGAGCTGGGT | 0.995 ± 0.02 |
| TAGTGACAGC | 1.04 ± 0.014 |
| GGGGCTGAGT | 0.954 ± 0.039 |

| Sequence | switch fluorescence ratio |
| --- | --- |
| ATGCATGGGG | 1.01 ± 0.017 |
| AGGTTAGATG | 0.991 ± 0.013 |
| TTCGAGAAGG | 0.972 ± 0.018 |
| TTCGGTTGGT | 1.01 ± 0.029 |
| TTGGAGGCGT | 0.9814 ± 0.0057 |
| TAATGGTTGG | 0.99283 ± 0.00085 |
| CGAGAGGAGG | 1.01 ± 0.02 |
| CCGTTTGGTT | 0.995 ± 0.064 |
| TTAATAATTC | 0.996 ± 0.032 |
| TATAAGGGGA | 1 ± 0.039 |
| ATGGCCTTAG | 0.9931 ± 0.0094 |
| TAAAATTTTT | 1.002 ± 0.01 |
| CTCATAAGTT | 1.01 ± 0.028 |
| TGGAGAGGTC | 0.999 ± 0.022 |
| CTGGAAGGGG | 1.04 ± 0.024 |
| AATATCGGCA | 0.982 ± 0.027 |
| GGGTGTCCTT | 0.998 ± 0.042 |
| AGCTTTATGT | 1.02 ± 0.04 |
| TCCTGTCTTT | 1.01 ± 0.014 |
| GGGGGATTAG | 0.992 ± 0.022 |
| CTTTCTAAGG | 1.02 ± 0.036 |
| TTTAGTTTCG | 1.02 ± 0.025 |
| TTAGGGCGGG | 1.04 ± 0.039 |

| Sequence | switch fluorescence ratio |
| --- | --- |
| TCGGCAATTT | 1.4 ± 0.34 |
| AACCGATGCT | 1.094 ± 0.005 |
| AGTAGGTGGC | 1 ± 0.052 |
| TGACAACCGG | 1.05 ± 0.021 |
| ACTTTACTTA | 1.33 ± 0.02 |
| TAGCGCTTTA | 1.01 ± 0.017 |
| AGCATTACCG | 1.165 ± 0.0045 |
| TATAGGTCAG | 0.985 ± 0.011 |
| GCTCTGGCTA | 1.11 ± 0.022 |
| TTTGGAATCG | 1.01 ± 0.046 |
| CGGGGAGAC | 1.02 ± 0.062 |
| TGCACATAGG | 1.06 ± 0.016 |
| GCTGGAGCCA | 1.03 ± 0.019 |
| TTAGGACAGC | 1.02 ± 0.021 |
| CTGTGGAGGG | 0.9455 ± 0.0091 |
| GTGTTCTCGC | 0.999 ± 0.05 |
| TTAGTTATTG | 1 ± 0.087 |
| TATCCTGTTT | 1.04 ± 0.011 |
| TGACGTTTTG | 0.9792 ± 0.0046 |
| ACTCTTGTTG | 1.01 ± 0.022 |
| CCTGCTTTTT | 1.02 ± 0.021 |
| AGTGGAATTC | 1.04 ± 0.012 |
| TGGGGGGAGA | 1.01 ± 0.045 |

| Sequence | switch fluorescence ratio |
| --- | --- |
| TGTTTGGATT | 0.988 ± 0.013 |
| GATCAAACGG | 1 ± 0.036 |
| GCTTAAGGCG | 0.991 ± 0.051 |
| GAGGATTCGG | 0.986 ± 0.026 |
| AATAAGGCCG | 0.996 ± 0.076 |
| AATGTATCGT | 0.978 ± 0.021 |
| AACTATGATG | 0.996 ± 0.03 |
| TTGCGTTAGG | 1.04 ± 0.012 |
| GCTGAGGGTT | 0.9552 ± 0.006 |
| GGATGGAGGG | 0.965 ± 0.02 |
| GAATGAGATC | 1.01 ± 0.11 |
| TTACTGCATT | 1.11 ± 0.014 |
| GTGGGGCAGT | 0.996 ± 0.025 |
| CCTATATACG | 1.13 ± 0.042 |
| GGGCTAGGCA | 1.02 ± 0.014 |
| GCTTTGGCTA | 1.02 ± 0.036 |
| CAGGTTAATG | 1.0027 ± 0.00049 |
| CGGTATGATC | 1.02 ± 0.022 |
| CCTTATTGAA | 0.979 ± 0.021 |
| GTTTCCAGGT | 1.16 ± 0.017 |
| AGTGTTAGGA | 1.02 ± 0.011 |
| TTACTGGTTA | 1.01 ± 0.029 |
| GCTGTAACG | 1 ± 0.042 |

| Sequence | switch fluorescence ratio |
| --- | --- |
| ACTGTTAGAT | 1.02 ± 0.054 |
| CGACATCGGA | 1.02 ± 0.017 |
| TGCAAACCTA | 1.0241 ± 0.00058 |
| TTAGAGAACC | 1.01 ± 0.016 |
| TGGGTCACAA | 0.992 ± 0.024 |
| GGTTTAGTCA | 0.9719 ± 0.00067 |
| ATTCTTGAGA | 0.988 ± 0.034 |
| TTGGACCGTG | 0.973 ± 0.069 |
| CCCGGAAGGT | 1.041 ± 0.0048 |
| TTTGAGATGT | 1.04 ± 0.0048 |
| TTTATAATTG | 1.03 ± 0.028 |
| TAAAGATTTC | 1.01 ± 0.069 |
| GGGGCTGGGT | 1.02 ± 0.031 |
| TGTCAGTTTC | 0.987 ± 0.018 |
| AGCTTTTTGA | 0.966 ± 0.025 |
| CCAGTTAGGA | 1.01 ± 0.033 |
| AAAAGCAGCG | 1.03 ± 0.05 |
| TTTTTCAGCC | 1.01 ± 0.046 |
| AGCATACGTT | 1.16 ± 0.051 |
| GCGGGACGTT | 0.96828 ± 0.00072 |
| ACTTACATGG | 1.23 ± 0.06 |
| CTGGGTGGGG | 1 ± 0.013 |
| GGGGGAGGGT | 0.997 ± 0.036 |

| Sequence | switch fluorescence ratio |
| --- | --- |
| TGTTAGGGTT | 1.01 ± 0.04 |
| GATTTACATA | 1.01 ± 0.019 |
| TATTGGGTGA | 0.99228 ± 0.00097 |
| TTTACGGGGC | 1 ± 0.017 |
| CAAGGGGGCC | 1.14 ± 0.18 |
| AGTTTGGTGT | 0.997 ± 0.026 |
| TTATAGTTTG | 0.997 ± 0.03 |
| TTAGCTACCT | 1.11 ± 0.19 |
| TTTGAGATAG | 1.02 ± 0.012 |
| TAGGGGAAGG | 1.03 ± 0.05 |
| GACGGCAGTG | 1 ± 0.02 |
| AATATTCCAT | 1.02 ± 0.045 |
| TCTCGTTTT | 0.979 ± 0.025 |
| GCTTCGTGTT | 1.05 ± 0.003 |
| AGGTCGGCA | 0.9919 ± 0.0092 |
| ATTTTTGTTT | 0.985 ± 0.023 |
| ACTTTATGTG | 0.996 ± 0.035 |
| GCGGTGGCGG | 0.987 ± 0.039 |
| TAATGGGCGT | 1 ± 0.012 |
